Results taken from a protein production outcome set (Wang et al. 2014).

Assay: label from the status in PepcDB records

Sequence	protein production
MWPDRRLIDLFKTEFPIVLAPMAGVMDAELVIAAAQGGALGSLPCAMLSAEKAREQVGLIRQRVKAPVNMNFFCHTPVDLTPEAEARWKQRLAGYYREHGLDPAAPISAANRAPFDAAFCEVVEELKPDVVSFHFGLPEQELLKRVKAAGSLVISSATTVKEAVWLERHGADAVIAQGAEAGGHRGMFLTDKIAEQPGTFALVPQVADAVKVPVIAAGGIADGRGIAAAFALGASGVQIGSAYLRCPESKVSAAGRAALAEGRDDSTVITNVMTGRPARGVQNRLMREAGPISPDAPPFPHAATALGPLKAAAEKQGRVDFTNLWAGQAIALGRELPAAELTRDLAKSALARMKALAG	failed
MWPQDPSRKEVLRFAVSCRILTLMLQALFNAIIPDHHAEAFSPPRLAPSGFVDQLVEGLLGGLSHWDAEHFLFIAEHGYLYEHNFAFFPGFPLALLVGTELLRPLRGLLSLRSCLLISVASLNFLFFMLAAVALHDLGCLVLHCPHQSFYAALLFCLSPANVFLAAGYSEALFALLTFSAMGQLERGRVWTSVLLFAFATGVRSNGLVSVGFLMHSQCQGFFSSLTMLNPLRQLFKLMASLFLSVFTLGLPFALFQYYAYTQFCLPGSARPIPEPLVQLAVDKGYRIAEGNEPPWCFWDVPLIYSYIQDVYWNVGFLKYYELKQVPNFLLAAPVAILVAWATWTYVTTHPWLCLTLGLQRSKNNKTLEKPDLGFLSPQVFVYVVHAAVLLLFGGLCMHVQVLTRFLGSSTPIMYWFPAHLLQDQEPLLRSLKTVPWKPLAEDSPPGQKVPRNPIMGLLYHWKTCSPVTRYILGYFLTYWLLGLLLHCNFLPWT	failed
MWQLLSRLNKNLVLTIPAMMAAGFVFGLVTETGFLKELIIPFTFLMVYPMMVTLKLKKVLEGGDGKAQLFTQFINFAVVPFVAFGLGRLFFADRPYMALGLLLAALVPTSGMTISWTGFARGNLEAAVKMTVVGLILGSIATPFYVQALMGAHVEVDMTGIMKQIAVIVFLPMAVGYATQRYLIAKHGQKGFQEQWAPRFPCLSTLGVLGIVFIAIALKAQAIAARPQDLLAILLPLAILYGINYSLSTVVGRLFLPRGDAIALAYGTVMRNLSIALAVAMNAFGKAGSDAALVIALAYIIQVQSAAWYVKFTGTLFGEAPAPSCPAPRRN	failed
MWSFIQKIFKALIIAPLDFITKYFKSFVLLLIVLVFFSAKESAPSAPPNLAKLYLNGAIFSTEDFDKEVDKILKTPSIKGVLLLIDSPGGAVSASVELSEKIADLKQKMPVLAYARGVMASGSYYAGMQASEVYASKASLIGSIGVIFSGANVENLLNKVGVATQGVHAGEYKEIGTFTRAWKPNEKDFLQNLVNEQYQMFVNDVAKARKLDAKDYKDFAEGKVFSAQKALKLKLIDKISTIKQAQDRLMELSKVKKAYWLEKSPMERFIEKATQSATNIITQAFGYQLLMR	failed
MWTTNIIKTPRGKFEYFLKGEGPPLCVTHLYSEYNDNGNTFANPFTDHYSVYLVNLKGCGNSDSAKNDSEYSMTETIKDLEAIREALYINKWGFAGHSAGGMLALVYATEAQESLTKIIVGGAAASKEYASHKDSIYCSKNVKFNRIVSIMNALNDDSTVQEERKALSREWALMSFYSEEKLEEALKLPNSGKTVGNRLNYFRQVEYKDYDVRQKLKFVKIPSFIYCGKHDVQCPYIFSCEIANLIPNATLTKFEESNHNPFVEEIDKFNQFVNDTL	not failed
MWVKPLREASQGKKEEEIHIKTSSSSSARSLAPLLVLKLIRSLSSSSARLQASQLVLKLLCSSSSSSACPQALQLALKLLCWSSSSSTGPQAPQLVFKLSSSSLSSARLQAPPLNDHLLA	failed
MWVWNMVEIKIVFGSSENMEEIPDNSVHLVVTSPPYYNAPFDFPGLFSSYEEYLNLLRKVGKELMRVLQPGRYACFVTQDVRIEGKLYPIVSDLIHIMVHELGFEYQDKIIWRKPEGYIRISRRSGVLIQHPYPMYYYPDNIYEEVVIFKKPGKFDRSAVPPEIREKSKISISKFQAEKWYLSVWDIKNVLPHEKWSKYTAPFPEELAERLIRLYSYVGETVLDPFLGSGTTCVVSRKLHRNCIGYEIDLELREIIEERLG	failed
